From patent US20220242950A1 (CANTARGIA, published 2022)
Where two headings read alike, the source gives them in different places. Blank lines part the entries; values can stand above or below the binder they belong to.

Tests used:
[1] = target: T1, human IL1RAP on the cell surface (human, UniProt Q9NPH3 21-570); assay: cell-based or functional assay
T1 sequence (looked up): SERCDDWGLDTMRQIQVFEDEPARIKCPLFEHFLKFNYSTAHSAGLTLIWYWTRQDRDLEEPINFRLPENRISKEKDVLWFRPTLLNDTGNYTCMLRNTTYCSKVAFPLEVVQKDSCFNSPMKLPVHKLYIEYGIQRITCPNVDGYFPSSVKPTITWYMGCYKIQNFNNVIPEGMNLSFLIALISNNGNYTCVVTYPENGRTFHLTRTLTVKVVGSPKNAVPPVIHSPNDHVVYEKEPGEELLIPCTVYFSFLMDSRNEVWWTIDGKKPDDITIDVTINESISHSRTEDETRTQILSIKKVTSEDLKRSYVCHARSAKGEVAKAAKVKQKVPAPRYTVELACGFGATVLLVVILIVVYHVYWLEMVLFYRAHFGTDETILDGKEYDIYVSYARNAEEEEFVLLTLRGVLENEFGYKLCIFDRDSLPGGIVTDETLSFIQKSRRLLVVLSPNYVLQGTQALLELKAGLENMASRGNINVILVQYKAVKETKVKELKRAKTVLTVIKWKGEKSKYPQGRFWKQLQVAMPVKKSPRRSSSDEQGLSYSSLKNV

[2] = target: T1, human IL1RAP on the cell surface; assay: flow cytometry on SKMEL-5 cells, Alexa488 anti-human IgG secondary
Description: FIG. 12: Dose-dependent binding of chimeric 48D2 to cell membrane IL1RAP Chimeric 48D2 or hIgG1 (hIg=human immunoglobulin) isotype control antibody was added to SKMEL-5 cells in increasing concentrations and extracellular binding was analyzed by flow cytometry. Chimeric 48D2 specifically bound IL1RAP on the cell membrane in a dose-dependent manner and with higher mean fluorescent intensity (MFI) compared to the hIgG1 isotype control antibody.
The malignant melanoma (or malign melanoma) cell line SKMEL-5, which expresses IL1RAP on the cell surface, was used for the analysis. SKMEL-5 cells were cultured according to standard procedures. 5×10⁴ SKMEL-5 cells were blocked with human Fc block and then stained with 8-step serial dilutions (100 μg/ml-0.03 μg/ml) of chimeric 48D2 or isotype control antibody. Following secondary staining using Alexa488-conjugated anti-human IgG antibody, 10000 cells/sample were analyzed on a CytoFlex (Beckman Coulter). HTB183 cells expressing low levels of surface IL1RAP were used as negative controls.

[3] = target: T2, recombinant hIL1RAP Domain1+2+3 (aa21-367) (human, UniProt Q9NPH3 21-367); assay: BLI (BLItz), antibody on Protein A biosensor, hIL1RAP (21-367) in solution
T2 construct: Numbering on Uniprot Q9NPH3
T2 sequence (looked up): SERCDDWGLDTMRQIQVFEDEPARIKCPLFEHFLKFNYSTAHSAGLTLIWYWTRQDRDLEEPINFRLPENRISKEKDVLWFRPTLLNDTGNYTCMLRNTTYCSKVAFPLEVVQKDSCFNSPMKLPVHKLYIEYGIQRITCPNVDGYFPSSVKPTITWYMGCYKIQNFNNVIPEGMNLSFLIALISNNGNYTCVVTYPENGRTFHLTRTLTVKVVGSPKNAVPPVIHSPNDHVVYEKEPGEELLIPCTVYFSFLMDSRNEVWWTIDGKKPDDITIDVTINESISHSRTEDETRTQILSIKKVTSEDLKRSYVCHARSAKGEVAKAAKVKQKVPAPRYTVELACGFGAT
Description: (§1) Affinity measurements were done on BLItz™ Label-Free Protein Analysis System from ForteBio, using the Basic Kinetics module in the BLItz Pro 1.3.1.3 software from Molecular Devices. Protein A biosensors were hydrated in blocking buffer (PBS, 0.5% BSA, 0.05% Tween 20, pH 7.4) for minimum 10 min at room temperature before coating. Protein A biosensors were coated with antibodies by dipping the biosensors in 200 μl of antibody solution (10 μg/ml in blocking buffer) for 30 min at room temperature. The sensors were then incubated in 200 μl blocking buffer for at least 10 min before use. […] The baseline was made in blocking buffer with a duration time of 30 sec. Association was made for 120 sec in hIL1RAP followed by 120 sec dissociation in blocking buffer.
Affinity measurement results are shown in Table 4 for chimeric 48D2, as well as for humanized 48D2 variant VH5:VL4 (see Example 11) and for humanized and de-immunized 48D2 variant VH5.GL:VL4 (see Example 13). kₐ is the association rate constant, for characterization of the antibody binding to the target, kd is the dissociation rate constant, for characterization of the antibody dissociation from the target, and KD is the equilibrium dissociation constant between the antibody and its antigen, the ratio of kd/kₐ. […] The lower the KD value (lower concentration), the higher the affinity.

[4] = target: T3, mouse IL1RAP (mouse (Mus musculus), UniProt Q61730 21-367, limits assumed); assay: indirect ELISA on coated IL1RAP, goat anti-human antibody-alkaline phosphatase, absorbance at 405 nm
T3 construct: Coated ortholog in the cross reactivity ELISA; also called mIL1RAP; murine IL1RAP
T3 sequence (looked up): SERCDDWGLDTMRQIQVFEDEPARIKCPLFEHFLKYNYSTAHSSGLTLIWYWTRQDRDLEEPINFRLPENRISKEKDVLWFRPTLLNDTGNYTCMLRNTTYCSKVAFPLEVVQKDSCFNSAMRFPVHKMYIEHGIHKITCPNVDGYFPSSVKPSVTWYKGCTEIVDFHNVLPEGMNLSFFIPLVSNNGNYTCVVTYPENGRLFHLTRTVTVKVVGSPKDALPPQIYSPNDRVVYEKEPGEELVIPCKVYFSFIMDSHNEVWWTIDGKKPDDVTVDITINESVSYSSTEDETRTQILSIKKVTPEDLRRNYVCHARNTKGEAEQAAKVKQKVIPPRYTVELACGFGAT
Description: (§2) Microtiter plate wells were coated with IL1RAP orthologs (Mus musculus, Rattus norvegicus, Macaca fascicularis (Mf, synonymous to cynomolgus monkey), Oryctolagus cuniculus, Canis lupus familiaris, Sus scrofa) and incubated for 1 hour at 37° C. Plates were washed followed by a blocking step. After 1 hour incubation at room temperature on agitation, the plates were washed again. The antibody was diluted in fourfold serial dilution, ranging from 4000 ng/ml to 0.24 ng/ml, in ELISA blocking solution, and then transferred to the ELISA plate. Plates were incubated at 37° C. in 30 min on agitation and then washed. Goat Anti-Human antibody conjugated to Alkaline Phosphatase was added and incubated 30 min at 37° C. on agitation. The plates were washed followed by addition of substrate (4-Nitrophenyl phosphate disodium salt hexahydrate). The plates were thereafter incubated at room temperature on agitation and absorbance at 405 nm measured consecutively for 50 min. Absorbance at 0 min was taken as background signal.
(§3) The antibody is added in increasing concentrations and absorbance at 405 nm is used to detect binding of the antibody to IL1RAP orthologues. 48D2 is cross reactive to IL1RAP from human, cynomolgus monkey (cyno) and pig, but has no cross reactivity to IL1RAP from mouse, rat, rabbit or dog (FIG. 14 and Table 7).

[5] = target: T4, rat IL1RAP (rat (Rattus norvegicus), UniProt Q63621 21-367, limits assumed); assay: as above
T4 construct: also called rnIL1RAP
T4 sequence (looked up): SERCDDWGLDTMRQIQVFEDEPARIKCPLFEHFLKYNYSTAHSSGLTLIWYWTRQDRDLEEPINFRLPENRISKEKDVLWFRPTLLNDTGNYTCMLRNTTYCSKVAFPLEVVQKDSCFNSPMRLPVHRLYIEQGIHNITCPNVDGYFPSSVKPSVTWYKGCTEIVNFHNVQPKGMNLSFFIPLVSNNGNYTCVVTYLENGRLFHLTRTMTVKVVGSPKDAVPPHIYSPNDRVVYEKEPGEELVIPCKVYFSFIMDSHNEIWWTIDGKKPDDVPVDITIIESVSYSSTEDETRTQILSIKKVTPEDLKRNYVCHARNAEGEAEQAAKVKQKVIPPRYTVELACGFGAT
Description: as §2, §3

[6] = target: T1, human IL1RAP on the cell surface; assay: cell-based or functional assay; remark: listed apart in the source
[7] = target: T2, recombinant hIL1RAP Domain1+2+3 …; assay: bio-layer interferometry, human IL1RAP
Description: as §1
KD values for affinity towards human IL1RAP are shown in Table 17 for the de-immunized h48D2 variants. Affinity was measured using bio-layer interferometry. […] See also Table 4 for a direct comparison of 48D2, humanized 48D2, and de-immunized h48D2.

[8] = target: T3, mouse IL1RAP; assay: indirect ELISA on coated IL1RAP, goat anti-human antibody-alkaline phosphatase, absorbance at 405 nm; remark: listed apart in the source
Description: as §2
(§4) The antibody is added in increasing concentrations and absorbance at 405 nm is used to detect binding to IL1RAP. As for chimeric 48D2, the humanized and de-immunized variants h48D2 VH5.GL:VL4 and h48D2 VH5.GL:VL5.GL were cross reactive to IL1RAP from cynomolgus monkey (cyno) and pig, but have no cross reactivity to IL1RAP from mouse, rat, rabbit or dog (FIG. 18 and Table 20).

[9] = target: T4, rat IL1RAP; assay: as above; remark: listed apart in the source
Description: as §2, §4

IC50 of IL-1α signaling (HEK-Blue assay) [1]: 1.92 nM
IC50 of IL-1β signaling (HEK-Blue assay) [1]: 0.7 nM
IC50 of IL-33 signaling (HEK-Blue assay) [1]: 2.92 nM
IC50 of IL-36α signaling (HEK-Blue assay) [1]: 0.0083 nM
IC50 of IL-36β signaling (HEK-Blue assay) [1]: 0.0081 nM
IC50 of IL-36γ signaling (HEK-Blue assay) [1]: 0.0111 nM
EC50 (read off the curve) [2]: ~6 nM
Kd [3]: 2.67 nM
koff [3]: 0.000174 s⁻¹
kon [3]: 65200 M⁻¹ s⁻¹
binding result [4]: no binding (tested: 4000 ng/mL)
binding result [5]: no binding (tested: 4000 ng/mL)
B1: chimeric 48D2 (antibody, V domains shown, not shown: a dimerising Fc or GST)
VH: QEQLEESGGGLVKPGGSLTLTCTVSGPSLSHFDITWVRQAPGSGLEWIGTISPGVSTYYASWAKSRSTITSNTNLNTVTLKMTSLTAADTATYFCARGGVGSSWKAFDLWGPGTLVTISS
VL: APVLTQTPASVEVAVGGTVTIKCQASESISTALAWYQQKPGQPPKLLIYKASTLPSGVSSRFKGSGSGTEFALTISDLECDDAATYYCQQGFSSGNVHNAFGGGTEVVVKR
notes: Chimeric rabbit/human IgG1, expressed in CHO cells; also called ch48D2; 48D2 chimeric (ch) rabbit/human anti-human IL1RAP

IC50 of IL-1α signaling (HEK-Blue assay) [6]: 0.24 nM
IC50 of IL-1β signaling (HEK-Blue assay) [6]: 0.13 nM
IC50 of IL-33 signaling (HEK-Blue assay) [6]: 3.56 nM
IC50 of IL-36α signaling (HEK-Blue assay) [6]: 0.174 nM
IC50 of IL-36β signaling (HEK-Blue assay) [6]: 0.185 nM
IC50 of IL-36γ signaling (HEK-Blue assay) [6]: 0.244 nM
Kd [7]: 1.47 nM
binding result [8]: no binding (tested: 4000 ng/mL)
binding result [9]: no binding (tested: 4000 ng/mL)
B2: h48D2 VH5.GL:VL5.GL (antibody, human IgG1, kappa, L234A L235A)
heavy: not shown
light: DIQMTQSPSTLSASVGDRVTITCQASESISTALAWYQQKPGQPPKLLIYKASTLPSGVPSRFSGSGSGTEFTLTISDLESDDAATYYCQQGFSSGNVHNAFGGGTEVVVKRTVAAPSVFIFPPSDEQLKSGTASVVCLLNNFYPREAKVQWKVDNALQSGNSQESVTEQDSKDSTYSLSSTLTLSKADYEKHKVYACEVTHQGLSSPVTKSFNRGEC
notes: Humanized and de-immunized; also called VL5.GL:VH5.GL
